Experimental data from article PMC8835810.

Molecular target: E117K mutant of rabbit muscle pyruvate kinase (rabbit)
Assay: crystal structure; E117K mutant at 7 mg/mL in 50 mM Tris pH 7.0 with 1.0 mM ATP, 1.0 mM MgCl2, 0.2 mM oxalate; hanging drop; 0.2 M magnesium acetate, 0.1 M sodium cacodylate pH 6.5, 18% w/v PEG 8000; space group P212121, four copies in the asymmetric unit

stoichiometry N: 4
Substance: E117K mutant of rabbit muscle pyruvate kinase (enzyme)
